Experimental data: the supplement of paper PMC9112550, “Optimization of the antimicrobial peptide Bac7 by deep mutational scanning” (BMC Biology, 2022)

System: Escherichia coli TOP10
Experiment: shrunken log2 fold change of peptide-encoding DNA abundance (4.5 h post-induction vs induction); higher = less antimicrobial activity (less host growth inhibition)
Conditions: time post-induction: 4.5 h; library: site-saturation at positions 5, 18, 19, 20
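Note: peptides expressed intracellularly from a pBAD plasmid library in pooled LB shake-flask culture, induced with 0.3% L-arabinose, DNA abundance read by NGS, three biological replicates, DESeq2 with apeglm shrinkage.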

Sequence | shrunken log2 fold change
RRIRKRPPRLPRPRPRPHRTPRP | -0.19
RRIRLRPPRLPRPRPRPTRDPRP | 0.454
RRIRIRPPRLPRPRPRPEGVPRP | 0.115
RRIRTRPPRLPRPRPRPPFLPRP | 0.207
RRIRDRPPRLPRPRPRPGLCPRP | 0.224
RRIRMRPPRLPRPRPRPWAPPRP | 0.214
RRIRQRPPRLPRPRPRPTQNPRP | 0.627
RRIRNRPPRLPRPRPRPYFMPRP | -1.09
RRIRTRPPRLPRPRPRPDSFPRP | 0.033
RRIRERPPRLPRPRPRPAMMPRP | -0.163
RRIRCRPPRLPRPRPRPDQIPRP | -0.212
RRIRPRPPRLPRPRPRPMCFPRP | -0.405
RRIRVRPPRLPRPRPRPELPPRP | -0.0996
RRIRARPPRLPRPRPRPSDVPRP | 0.162
RRIRMRPPRLPRPRPRPPSEPRP | 0.962
RRIRIRPPRLPRPRPRPCDGPRP | -0.00133
RRIRGRPPRLPRPRPRPDKTPRP | 0.104
RRIRKRPPRLPRPRPRPWMAPRP | 0.102
RRIRLRPPRLPRPRPRPRTKPRP | 0.567
RRIRFRPPRLPRPRPRPNMWPRP | -0.485
RRIRERPPRLPRPRPRPGQLPRP | -0.131
RRIRIRPPRLPRPRPRPTDWPRP | 0.0724
RRIRNRPPRLPRPRPRPERSPRP | 0.129
RRIRCRPPRLPRPRPRPEWTPRP | 0.154
RRIRQRPPRLPRPRPRPVFWPRP | 0.113

Sequence | shrunken log2 fold change
RRIRDRPPRLPRPRPRPWLAPRP | 0.171
RRIRERPPRLPRPRPRPGNLPRP | -0.17
RRIRPRPPRLPRPRPRPGKQPRP | -0.0793
RRIRQRPPRLPRPRPRPTSQPRP | -0.0461
RRIRYRPPRLPRPRPRPRYTPRP | -0.0817
RRIRHRPPRLPRPRPRPWYFPRP | -0.813
RRIRFRPPRLPRPRPRPMHKPRP | -0.263
RRIRRRPPRLPRPRPRPCAYPRP | 0.0425
RRIRARPPRLPRPRPRPPHWPRP | 1.08
RRIRYRPPRLPRPRPRPPMMPRP | -0.836
RRIRMRPPRLPRPRPRPECWPRP | 2.25
RRIRWRPPRLPRPRPRPLNWPRP | 0.101
RRIRMRPPRLPRPRPRPKKAPRP | 0.0459
RRIRSRPPRLPRPRPRPWMQPRP | -0.0251
RRIRLRPPRLPRPRPRPVMYPRP | -0.302
RRIRWRPPRLPRPRPRPVWQPRP | 0.301
RRIRNRPPRLPRPRPRPKDKPRP | -0.112
RRIRFRPPRLPRPRPRPDAIPRP | 0.041
RRIRYRPPRLPRPRPRPHFLPRP | -0.13
RRIRDRPPRLPRPRPRPTRCPRP | 1.35
RRIRPRPPRLPRPRPRPMDTPRP | -0.276
RRIRLRPPRLPRPRPRPIWPPRP | 0.356
RRIRERPPRLPRPRPRPMGRPRP | 0.0998
RRIRYRPPRLPRPRPRPIRLPRP | 0.0224
RRIRNRPPRLPRPRPRPHWHPRP | -0.65

Sequence | shrunken log2 fold change
RRIRYRPPRLPRPRPRPTTYPRP | -0.941
RRIRFRPPRLPRPRPRPVKSPRP | -0.159
RRIRQRPPRLPRPRPRPREFPRP | 0.0416
RRIRRRPPRLPRPRPRPQHAPRP | 0.314
RRIRYRPPRLPRPRPRPLFDPRP | 0.802
RRIRNRPPRLPRPRPRPNRCPRP | -0.0238
RRIRPRPPRLPRPRPRPGHHPRP | 0.0565
RRIRCRPPRLPRPRPRPRLKPRP | 0.0782
RRIRLRPPRLPRPRPRPQYVPRP | 0.0564
RRIRYRPPRLPRPRPRPYIIPRP | -0.241
RRIRTRPPRLPRPRPRPESMPRP | 0.0954
RRIRHRPPRLPRPRPRPPESPRP | 0.211
RRIRQRPPRLPRPRPRPCGHPRP | 0.0101
RRIRWRPPRLPRPRPRPLWIPRP | -0.115
RRIRCRPPRLPRPRPRPCMWPRP | -0.124
RRIRDRPPRLPRPRPRPMQWPRP | 0.0918
RRIRRRPPRLPRPRPRPECDPRP | 0.889
RRIRVRPPRLPRPRPRPMCQPRP | -0.0733
RRIRPRPPRLPRPRPRPMHKPRP | 0.0775
RRIRRRPPRLPRPRPRPNFPPRP | 0.46
RRIRSRPPRLPRPRPRPLYWPRP | -0.154
RRIRPRPPRLPRPRPRPWPKPRP | -0.0311
RRIRVRPPRLPRPRPRPQIYPRP | -0.251
RRIRLRPPRLPRPRPRPMRPPRP | 1.44
RRIRPRPPRLPRPRPRPQHPPRP | 0.0328

Sequence | shrunken log2 fold change
RRIRHRPPRLPRPRPRPRCWPRP | 0.145
RRIRGRPPRLPRPRPRPSHEPRP | -0.418
RRIRPRPPRLPRPRPRPFQSPRP | 0.0035
RRIRVRPPRLPRPRPRPHRMPRP | -0.457
RRIRQRPPRLPRPRPRPLYTPRP | -0.671
RRIRPRPPRLPRPRPRPKKIPRP | 0.0064
RRIRVRPPRLPRPRPRPKKAPRP | 0.157
RRIRIRPPRLPRPRPRPGAEPRP | 0.0273
RRIRHRPPRLPRPRPRPMKDPRP | -0.778
RRIRERPPRLPRPRPRPIPLPRP | -0.275
RRIRARPPRLPRPRPRPINMPRP | -0.346
RRIRVRPPRLPRPRPRPMFRPRP | -0.048
RRIRIRPPRLPRPRPRPAIQPRP | -0.143
RRIRMRPPRLPRPRPRPNFEPRP | 0.422
RRIRFRPPRLPRPRPRPCKWPRP | -0.0168
RRIRERPPRLPRPRPRPVRIPRP | -0.0343
RRIRRRPPRLPRPRPRPSPSPRP | 0.386
RRIRFRPPRLPRPRPRPRDPPRP | 0.553
RRIRSRPPRLPRPRPRPPELPRP | 0.629
RRIRGRPPRLPRPRPRPWCWPRP | 0.682
RRIRMRPPRLPRPRPRPYSVPRP | 0.0409
RRIRNRPPRLPRPRPRPNNDPRP | -0.934
RRIRDRPPRLPRPRPRPVHAPRP | 0.209
RRIRHRPPRLPRPRPRPQRAPRP | 0.205
RRIRNRPPRLPRPRPRPVELPRP | -0.0081

Sequence | shrunken log2 fold change
RRIRYRPPRLPRPRPRPCYFPRP | -1.04
RRIRFRPPRLPRPRPRPATKPRP | 0.217
RRIRPRPPRLPRPRPRPIWQPRP | 0.0572
RRIRTRPPRLPRPRPRPLTLPRP | -0.241
RRIRYRPPRLPRPRPRPLSGPRP | -0.0308
RRIRTRPPRLPRPRPRPLQGPRP | 0.12
RRIRGRPPRLPRPRPRPTVSPRP | 0.731
RRIRPRPPRLPRPRPRPGMSPRP | 0.0989
RRIRERPPRLPRPRPRPGDHPRP | -0.0518
RRIRARPPRLPRPRPRPGCKPRP | 0.321
RRIRGRPPRLPRPRPRPPGGPRP | 1.18
RRIRKRPPRLPRPRPRPTSMPRP | 0.508
RRIRTRPPRLPRPRPRPAKWPRP | -0.000772
RRIRQRPPRLPRPRPRPVPFPRP | -0.374
RRIRRRPPRLPRPRPRPRFQPRP | 0.555
RRIRDRPPRLPRPRPRPRAGPRP | 0.741
RRIRYRPPRLPRPRPRPGPWPRP | 0.18
RRIRERPPRLPRPRPRPFTAPRP | -0.227
RRIRMRPPRLPRPRPRPEFFPRP | 0.277
RRIRPRPPRLPRPRPRPEDHPRP | -0.131
RRIRERPPRLPRPRPRPSVRPRP | -0.148
RRIRARPPRLPRPRPRPFDCPRP | -0.0326
RRIRSRPPRLPRPRPRPHTTPRP | -0.0736
RRIRGRPPRLPRPRPRPSYGPRP | -0.137
RRIRQRPPRLPRPRPRPEARPRP | -0.00982

Sequence | shrunken log2 fold change
RRIRVRPPRLPRPRPRPGWWPRP | 0.115
RRIRSRPPRLPRPRPRPTSWPRP | 0.239
RRIRFRPPRLPRPRPRPCLPPRP | -0.783
RRIRYRPPRLPRPRPRPNCDPRP | -0.504
RRIRDRPPRLPRPRPRPETNPRP | 0.443
RRIRCRPPRLPRPRPRPVYSPRP | -0.156
RRIRMRPPRLPRPRPRPTKTPRP | 0.334
RRIRTRPPRLPRPRPRPRGCPRP | 0.261
RRIRDRPPRLPRPRPRPTTHPRP | 0.313
RRIRMRPPRLPRPRPRPVESPRP | 0.00581
RRIRWRPPRLPRPRPRPPQNPRP | 0.91
RRIRKRPPRLPRPRPRPFLLPRP | -0.399
RRIRSRPPRLPRPRPRPDCAPRP | 0.187
RRIRSRPPRLPRPRPRPNSSPRP | -0.31
RRIRRRPPRLPRPRPRPDCVPRP | -0.0143
RRIRTRPPRLPRPRPRPTYGPRP | -0.104
RRIRSRPPRLPRPRPRPMWSPRP | 0.284
RRIRWRPPRLPRPRPRPITQPRP | -0.0367
RRIRERPPRLPRPRPRPASHPRP | -0.34
RRIRMRPPRLPRPRPRPYYNPRP | -0.709
RRIRRRPPRLPRPRPRPLNSPRP | 0.134
RRIRARPPRLPRPRPRPKPVPRP | 0.882
RRIRVRPPRLPRPRPRPWFDPRP | -0.439
RRIRYRPPRLPRPRPRPLMGPRP | -0.0741
RRIRFRPPRLPRPRPRPGDDPRP | 0.342
